The text below walks through data of PMC4336326, “The Nucleocapsid Protein of Human Coronavirus NL63” (PLoS ONE, 2015).

The target of data set [1] is C-terminal domain of the HCoV-NL63 nucleocapsid protein (HCoV-NL63 (isolate Amsterdam 1)) (UniProt Q6Q1R8). Put plainly: cross-linking; 50 ug of protein with 0.007% glutaraldehyde, 15 min at room temperature, stopped with Tris, then SDS-PAGE (Coomassie).
Data set [2] shares this target. Put plainly: SEC; CTD analysed by size exclusion chromatography; two peaks taken as dimer and monomer from retention time and SDS-PAGE; column and buffer not given.
Data set [3] concerns the molecule itself. Put plainly: native MS; ESI mass spectrometry (MicroTOF-QII, positive ionization mode) of samples dialysed into 50 mM NH4HCO3, pH 7.8; masses of monomer and dimer from deconvolved spectra.

As usually defined, the stoichiometry N is the number of molecules, sites or subunits per partner or assembly. Molecule “C-terminal domain of the HCoV-NL63 nucleocapsid protein (from UniProt Q6Q1R8 221-340) (domain or fragment)” showed a stoichiometry N in data set [1] of more than 2. For the same molecule, in data set [2], the percent of the protein present as dimers worked out at 40% and the stoichiometry N came to 2.

B1: HCoV-NL63 nucleocapsid (N) protein, complete (natural protein)
chain: MASVNWADDRAARKKFPPPSFYMPLLVSSDKAPYRVIPRNLVPIGKGNKDEQIGYWNVQERWRMRRGQRVDLPPKVHFYYLGTGPHKDLKFRQRSDGVVWVAKEGAKTVNTSLGNRKRNQKPLEPKFSIALPPELSVVEFEDRSNNSSRASSRSSTRNNSRDSSRSTSRQQSRTRSDSNQSSSDLVAAVTLALKNLGFDNQSKSPSSSGTSTPKKPNKPLSQPRADKPSQLKKPRWKRVPTREENVIQCFGPRDFNHNMGDSDLVQNGVDAKGFPQLAELIPNQAALFFDSEVSTDEVGDNVQITYTYKMLVAKDNKNLPKFIEQISAFTKPSSIKEMQSQSSHVAQNTVLNASIPESKPLADDDSAIIEIVNEVLH
notes: also called WT; complete NL63-N protein; source: E. coli BL21, purified (Ni Sepharose, Resource Q, Superdex S75) to about 80% homogeneity
For the molecule B1, the “stoichiometry N” value in data set [3] was 2.
